# Measured values as given in paper PMC3828302.
# Experiments:
# Assay in all cases: EMSA
# Conditions in all cases: 10 mM Tris-HCl pH 7.4, 50 mM KCl, 1 mM DTT, 100 mg/mL BSA (so in the source), 5 ng/mL poly[dI-dC], 200 uM c-di-GMP, 30 C 20 min; 5% native PAGE with 50 uM c-di-GMP …
# [1] = target: T1, MrkH-8xHis (Klebsiella pneumoniae AJ218) (UniProt G3FT00)
# T1 sequence: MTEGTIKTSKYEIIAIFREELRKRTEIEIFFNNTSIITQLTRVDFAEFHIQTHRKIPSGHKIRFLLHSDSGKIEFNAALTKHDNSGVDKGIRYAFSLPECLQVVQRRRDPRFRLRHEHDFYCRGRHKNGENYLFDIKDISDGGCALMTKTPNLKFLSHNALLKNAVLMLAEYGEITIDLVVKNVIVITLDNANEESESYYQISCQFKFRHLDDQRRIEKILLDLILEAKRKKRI
# [2] = target: T2, MrkH 15AS16-8xHis internal_change (Klebsiella pneumoniae AJ218) (UniProt G3FT00)
# T2 sequence: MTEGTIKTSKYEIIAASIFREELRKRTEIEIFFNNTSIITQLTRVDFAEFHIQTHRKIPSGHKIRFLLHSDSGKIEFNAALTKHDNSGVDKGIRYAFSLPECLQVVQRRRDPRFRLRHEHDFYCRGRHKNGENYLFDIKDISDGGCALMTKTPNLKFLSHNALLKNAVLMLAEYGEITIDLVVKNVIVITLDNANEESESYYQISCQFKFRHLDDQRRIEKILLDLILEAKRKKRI
# [3] = target: T3, MrkH 202AS203-8xHis internal_change (Klebsiella pneumoniae AJ218) (UniProt G3FT00)
# T3 sequence: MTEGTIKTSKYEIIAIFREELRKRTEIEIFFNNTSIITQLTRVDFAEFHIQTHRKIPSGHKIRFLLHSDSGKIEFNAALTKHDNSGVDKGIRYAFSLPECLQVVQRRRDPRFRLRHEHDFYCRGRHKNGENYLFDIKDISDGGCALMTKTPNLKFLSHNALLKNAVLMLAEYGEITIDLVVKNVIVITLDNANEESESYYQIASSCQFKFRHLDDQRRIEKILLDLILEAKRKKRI
# [4] = target: T4, MrkH 217AS218-8xHis internal_change (Klebsiella pneumoniae AJ218) (UniProt G3FT00)
# T4 sequence: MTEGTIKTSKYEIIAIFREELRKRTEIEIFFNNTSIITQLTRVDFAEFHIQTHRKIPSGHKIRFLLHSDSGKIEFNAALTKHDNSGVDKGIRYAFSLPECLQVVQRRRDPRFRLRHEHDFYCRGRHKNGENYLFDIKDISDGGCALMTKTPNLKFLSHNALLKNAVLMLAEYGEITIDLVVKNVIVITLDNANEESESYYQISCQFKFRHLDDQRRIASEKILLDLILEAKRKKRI
# [5] = target: T5, MrkH 39AS40-8xHis internal_change (Klebsiella pneumoniae AJ218) (UniProt G3FT00)
# T5 sequence: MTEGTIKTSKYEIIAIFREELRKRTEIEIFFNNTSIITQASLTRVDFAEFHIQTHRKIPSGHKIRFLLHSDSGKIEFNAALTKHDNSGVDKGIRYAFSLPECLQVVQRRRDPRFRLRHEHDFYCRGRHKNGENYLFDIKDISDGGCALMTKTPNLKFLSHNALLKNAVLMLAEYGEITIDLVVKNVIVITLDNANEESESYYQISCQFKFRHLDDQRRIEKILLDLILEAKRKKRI
Sequence,binding [1],binding [2],binding [3],binding [4],binding [5]
"GCTGTTGCGGTCACTTTCTCTCGCTCTGGCGTTAGGCTTGCTGCGCTGTAAACAACCACCCTCGCGTTTTCATCTATCAATGACTGTTGCAGCATAGTCGATGGTTATCTGTTATATAACTTAATGAAACGTGAACAAATGTATATTTGTCGGCGAATAAATAGCATTCTTTGACGCCGATAGCACCAGCGAACTTATATTTTTAGGTTCGTTACCTGACGCCTTAAATATTGCGGCTCCCGGTCAGTCGAAGATTCTATTAGCAGTGGC (double strand) [mrkA fragment, UP mutation]",binds,,,,
"GCTGTTGCGGTCACTTTCTCTCGCTCTGGCGTTAGGCTTGCTGCGCTGTAAACAACCACCCTCGCGTTTTCATCTAAGAATGACTGTTTATTAATAGTCGATGGTTATCTGTTATATAACTTAATGAAACGTGAACAAATGTATATTTGTCGGCGAATAAATAGCATTCTTTGACGCCGATAGCACCAGCGAACTTATATTTTTAGGTTCGTTACCTGACGCCTTAAATATTGCGGCTCCCGGTCAGTCGAAGATTCTATTAGCAGTGGC (double strand) [mrkA fragment, MrkH box mut-6]",binds more weakly,,,,
"GCTGTTGCGGTCACTTTCTCTCGCTCTGGCGTTAGGCTTGCTGCGCTGTAAACAACCACCCTCGCGTTTTCATCTATCAATGACTGTTTATTAATAGTCGATGGTTATCTGTTATATAACTTAATGAAACGTGAACAAATGTATATTTGTCGGCGAATAAATAGCATTCTTTGACGCCGATAGCACCAGCGAACTTATATTTTTAGGTTCGTTACCTGACGCCTTAAATATTGCGGCTCCCGGTCAGTCGAAGATTCTATTAGCAGTGGC (double strand) [mrkA promoter fragment, wild type]",binds,binds,no binding,no binding,binds
"GCTGTTGCGGTCACTTTCTCTCGCTCTGGCGTTAGGCTTGCTGCGCTGTAAACAACCACCCTCGCGTTTTCATCTCCCAATGACTGTTTATTAATAGTCGATGGTTATCTGTTATATAACTTAATGAAACGTGAACAAATGTATATTTGTCGGCGAATAAATAGCATTCTTTGACGCCGATAGCACCAGCGAACTTATATTTTTAGGTTCGTTACCTGACGCCTTAAATATTGCGGCTCCCGGTCAGTCGAAGATTCTATTAGCAGTGGC (double strand) [mrkA fragment, MrkH box mut-5]",binds more weakly,,,,
